Test results from publication PMC10533412, “Phosphoantigens glue butyrophilin 3A1 and 2A1 to activate Vγ9Vδ2 T cells” (Nature, 2023).

Experiments:
BTN2A1 B30.2 domain = BTN2A1 B30.2 domain (UniProt Q7KYR7); experiment: ITC; conditions: with HMBPP
HMBPP = experiment: ITC
[1] = molecular target: VpBTN3 butyrophilin full intracellular domain (BFI) (alpaca (Vicugna pacos)); experiment: ITC; with IPP; conditions: domain or fragment
[2] = molecular target: VpBTN3 butyrophilin full intracellular domain (BFI) (alpaca (Vicugna pacos)); experiment: ITC; with DMAPP; conditions: domain or fragment
[3] = molecular target: VpBTN3 butyrophilin full intracellular domain (BFI) (alpaca (Vicugna pacos)); experiment: ITC; with HMBPP; conditions: domain or fragment

Chain of BTN2A1 B30.2 domain (Q7KYR7 whole entry, looked up, tested part not stated): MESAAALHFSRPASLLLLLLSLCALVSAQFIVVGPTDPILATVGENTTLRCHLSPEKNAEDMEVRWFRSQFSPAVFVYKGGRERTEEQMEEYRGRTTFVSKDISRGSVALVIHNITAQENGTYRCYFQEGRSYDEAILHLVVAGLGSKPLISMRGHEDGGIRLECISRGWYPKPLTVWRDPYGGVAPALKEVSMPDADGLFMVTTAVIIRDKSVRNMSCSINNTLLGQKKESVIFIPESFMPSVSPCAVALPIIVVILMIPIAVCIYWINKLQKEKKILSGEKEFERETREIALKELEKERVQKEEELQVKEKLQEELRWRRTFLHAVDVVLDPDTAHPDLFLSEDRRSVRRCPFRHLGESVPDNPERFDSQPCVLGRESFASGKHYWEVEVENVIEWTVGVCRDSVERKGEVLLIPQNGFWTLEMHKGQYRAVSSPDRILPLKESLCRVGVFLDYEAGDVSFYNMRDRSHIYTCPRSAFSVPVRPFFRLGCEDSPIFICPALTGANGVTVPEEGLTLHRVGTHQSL

Row | Kd (BTN2A1 B30.2 domain) | Kd (HMBPP) | Kd [1] | Kd [2] | Kd [3] | Substance
1 | 0.46 µM | 10.9 µM |  |  |  | BTN3A3 B30.2 R351H
2 |  |  | 191 µM | 46.5 µM | 0.658 µM | VpBTN2 butyrophilin full intracellular domain (BFI)
